In this assay the test system is HEK293FT cells transfected with TF library. The experiment in a line: Screening of TF condensates based on fluorescent puncta. Format: cell-based. Conditions: Figure 1B numerical data; TF library screen, one value per transcriptional factor. In short, it runs like this:
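TF plasmids (final 1.6 μg/ml) reverse-transfected with PEI (4.8 μg/ml) into HEK293FT cells; after 60 h, cells cultured ±glucose for 12 h, fixed in 4% PFA and immunostained for Flag or GAL4 tags with Alexa 488 secondaries. Puncta scored by automated imaging of 50 random fields per well.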

B1: ATF2/CRE-BP (protein, UniProt P15336 1-505, looked up)
Cyclic AMP-dependent …: MKFKLHVNSARQYKDLWNMSDDKPFLCTAPGCGQRFTNEDHLAVHKHKHEMTLKFGPARNDSVIVADQTPTPTRFLKNCEEVGLFNELASPFENEFKKASEDDIKKMPLDLSPLATPIIRSKIEEPSVVETTHQDSPLPHPESTTSDEKEVPLAQTAQPTSAIVRPASLQVPNVLLTSSDSSVIIQQAVPSPTSSTVITQAPSSNRPIVPVPGPFPLLLHLPNGQTMPVAIPASITSSNVHVPAAVPLVRPVTMVPSVPGIPGPSSPQPVQSEAKMRLKAALTQQHPPVTNGDTVKGHGSGLVRTQSEESRPQSLQQPATSTTETPASPAHTTPQTQSTSGRRRRAANEDPDEKRRKFLERNRAAASRCRQKRKVWVQSLEKKAEDLSSLNGQLQSEVTLLRNEVAQLKQLLLAHKDCPVTAMQKKSGYHTADKDDSSEDISVPSSPHTEAIQHSSVSTSNGVSSTSKAEAVATSVLTQMADQSTEPALSQIVMAPSSQSQPSGS
Take B1: the “Z score of condensed fraction” value was -0.7003.

B2: NKX2-2 (protein, UniProt O95096 1-273, looked up)
Homeobox protein Nkx-2.2: MSLTNTKTGFSVKDILDLPDTNDEEGSVAEGPEEENEGPEPAKRAGPLGQGALDAVQSLPLKNPFYDSSDNPYTRWLASTEGLQYSLHGLAAGAPPQDSSSKSPEPSADESPDNDKETPGGGGDAGKKRKRRVLFSKAQTYELERRFRQQRYLSAPEREHLASLIRLTPTQVKIWFQNHRYKMKRARAEKGMEVTPLPSPRRVAVPVLVRDGKPCHALKAQDLAAATFQAGIPFSAYSAQSLQHMQYNAQYSSASTPQYPTAHPLVQAQQWTW
As for B2, the “Z score of condensed fraction” value is on record as -0.1567.

B3: NFKB2 (protein, UniProt Q00653 1-900, looked up)
Nuclear factor NF-kappa-B …: MESCYNPGLDGIIEYDDFKLNSSIVEPKEPAPETADGPYLVIVEQPKQRGFRFRYGCEGPSHGGLPGASSEKGRKTYPTVKICNYEGPAKIEVDLVTHSDPPRAHAHSLVGKQCSELGICAVSVGPKDMTAQFNNLGVLHVTKKNMMGTMIQKLQRQRLRSRPQGLTEAEQRELEQEAKELKKVMDLSIVRLRFSAFLRASDGSFSLPLKPVISQPIHDSKSPGASNLKISRMDKTAGSVRGGDEVYLLCDKVQKDDIEVRFYEDDENGWQAFGDFSPTDVHKQYAIVFRTPPYHKMKIERPVTVFLQLKRKRGGDVSDSKQFTYYPLVEDKEEVQRKRRKALPTFSQPFGGGSHMGGGSGGAAGGYGGAGGGGSLGFFPSSLAYSPYQSGAGPMGCYPGGGGGAQMAATVPSRDSGEEAAEPSAPSRTPQCEPQAPEMLQRAREYNARLFGLAQRSARALLDYGVTADARALLAGQRHLLTAQDENGDTPLHLAIIHGQTSVIEQIVYVIHHAQDLGVVNLTNHLHQTPLHLAVITGQTSVVSFLLRVGADPALLDRHGDSAMHLALRAGAGAPELLRALLQSGAPAVPQLLHMPDFEGLYPVHLAVRARSPECLDLLVDSGAEVEATERQGGRTALHLATEMEELGLVTHLVTKLRANVNARTFAGNTPLHLAAGLGYPTLTRLLLKAGADIHAENEEPLCPLPSPPTSDSDSDSEGPEKDTRSSFRGHTPLDLTCSTKVKTLLLNAAQNTMEPPLTPPSPAGPGLSLGDTALQNLEQLLDGPEAQGSWAELAERLGLRSLVDTYRQTTSPSGSLLRSYELAGGDLAGLLEALSDMGLEEGVRLLRGPETRDKLPSTAEVKEDSAYGSQSVEQEAEKLGPPPEPPGGLCHGHPQPQVH
B3: the “Z score of condensed fraction” value was 0.04386.

B4: NFATX (protein, UniProt Q12968 2-1075, looked up)
Nuclear factor of activated …: TTANCGAHDELDFKLVFGEDGAPAPPPPGSRPADLEPDDCASIYIFNVDPPPSTLTTPLCLPHHGLPSHSSVLSPSFQLQSHKNYEGTCEIPESKYSPLGGPKPFECPSIQITSISPNCHQELDAHEDDLQINDPEREFLERPSRDHLYLPLEPSYRESSLSPSPASSISSRSWFSDASSCESLSHIYDDVDSELNEAAARFTLGSPLTSPGGSPGGCPGEETWHQQYGLGHSLSPRQSPCHSPRSSVTDENWLSPRPASGPSSRPTSPCGKRRHSSAEVCYAGSLSPHHSPVPSPGHSPRGSVTEDTWLNASVHGGSGLGPAVFPFQYCVETDIPLKTRKTSEDQAAILPGKLELCSDDQGSLSPARETSIDDGLGSQYPLKKDSCGDQFLSVPSPFTWSKPKPGHTPIFRTSSLPPLDWPLPAHFGQCELKIEVQPKTHHRAHYETEGSRGAVKASTGGHPVVKLLGYNEKPINLQMFIGTADDRYLRPHAFYQVHRITGKTVATASQEIIIASTKVLEIPLLPENNMSASIDCAGILKLRNSDIELRKGETDIGRKNTRVRLVFRVHIPQPSGKVLSLQIASIPVECSQRSAQELPHIEKYSINSCSVNGGHEMVVTGSNFLPESKIIFLEKGQDGRPQWEVEGKIIREKCQGAHIVLEVPPYHNPAVTAAVQVHFYLCNGKRKKSQSQRFTYTPVLMKQEHREEIDLSSVPSLPVPHPAQTQRPSSDSGCSHDSVLSGQRSLICSIPQTYASMVTSSHLPQLQCRDESVSKEQHMIPSPIVHQPFQVTPTPPVGSSYQPMQTNVVYNGPTCLPINAASSQEFDSVLFQQDATLSGLVNLGCQPLSSIPFHSSNSGSTGHLLAHTPHSVHTLPHLQSMGYHCSNTGQRSLSSPVADQITGQPSSQLQPITYGPSHSGSATTASPAASHPLASSPLSGPPSPQLQPMPYQSPSSGTASSPSPATRMHSGQHSTQAQSTGQGGLSAPSSLICHSLCDPASFPPDGATVSIKPEPEDREPNFATIGLQDITLDDVNEIIGRDMSQISVSQGAGVSRQAPLPSPESLDLGRSDGL
Turning to B4, the “Z score of condensed fraction” value is recorded as -0.5752.

B5: NFKBIB (protein, UniProt Q15653 1-356, looked up)
NF-kappa-B inhibitor beta: MAGVACLGKAADADEWCDSGLGSLGPDAAAPGGPGLGAELGPGLSWAPLVFGYVTEDGDTALHLAVIHQHEPFLDFLLGFSAGTEYMDLQNDLGQTALHLAAILGETSTVEKLYAAGAGLCVAERRGHTALHLACRVGAHACARALLQPRPRRPREAPDTYLAQGPDRTPDTNHTPVALYPDSDLEKEEEESEEDWKLQLEAENYEGHTPLHVAVIHKDVEMVRLLRDAGADLDKPEPTCGRSPLHLAVEAQAADVLELLLRAGANPAARMYGGRTPLGSAMLRPNPILARLLRAHGAPEPEGEDEKSGPCSSSSDSDSGDEGDEYDDIVVHSSRSQTRLPPTPASKPLPDDPRPV
With B5, the “Z score of condensed fraction” value was determined as 1.097.

B6: NFYB (protein, UniProt P25208 1-207, looked up)
Nuclear transcription factor …: MTMDGDSSTTDASQLGISADYIGGSHYVIQPHDDTEDSMNDHEDTNGSKESFREQDIYLPIANVARIMKNAIPQTGKIAKDAKECVQECVSEFISFITSEASERCHQEKRKTINGEDILFAMSTLGFDSYVEPLKLYLQKFREAMKGEKGIGGAVTATDGLSEELTEEAFTNQLPAGLITTDGQQQNVMVYTTSYQQISGVQQIQFS
B6: the “Z score of condensed fraction” value is 0.9401.

B7: NF-YB (protein, UniProt P25208 1-207, looked up)
Nuclear transcription factor …: B6 Nuclear transcription factor …
B7: the “Z score of condensed fraction” value is given as 0.001922.

B8: NKX2.5 (protein, UniProt P52952 1-324, looked up)
Homeobox protein Nkx-2.5: MFPSPALTPTPFSVKDILNLEQQQRSLAAAGELSARLEATLAPSSCMLAAFKPEAYAGPEAAAPGLPELRAELGRAPSPAKCASAFPAAPAFYPRAYSDPDPAKDPRAEKKELCALQKAVELEKTEADNAERPRARRRRKPRVLFSQAQVYELERRFKQQRYLSAPERDQLASVLKLTSTQVKIWFQNRRYKCKRQRQDQTLELVGLPPPPPPPARRIAVPVLVRDGKPCLGDSAPYAPAYGVGLNPYGYNAYPAYPGYGGAACSPGYSCTAAYPAGPSPAQPATAAANNNFVNFGVGDLNAVQSPGIPQSNSGVSTLHGIRAW
As to B8, the “Z score of condensed fraction” value is -0.3246.

B9: NFIL3 (protein, UniProt Q16649 1-462, looked up)
Nuclear factor …: MQLRKMQTVKKEQASLDASSNVDKMMVLNSALTEVSEDSTTGEELLLSEGSVGKNKSSACRRKREFIPDEKKDAMYWEKRRKNNEAAKRSREKRRLNDLVLENKLIALGEENATLKAELLSLKLKFGLISSTAYAQEIQKLSNSTAVYFQDYQTSKSNVSSFVDEHEPSMVSSSCISVIKHSPQSSLSDVSEVSSVEHTQESSVQGSCRSPENKFQIIKQEPMELESYTREPRDDRGSYTASIYQNYMGNSFSGYSHSPPLLQVNRSSSNSPRTSETDDGVVGKSSDGEDEQQVPKGPIHSPVELKHVHATVVKVPEVNSSALPHKLRIKAKAMQIKVEAFDNEFEATQKLSSPIDMTSKRHFELEKHSAPSMVHSSLTPFSVQVTNIQDWSLKSEHWHQKELSGKTQNSFKTGVVEMKDSGYKVSDPENLYLKQGIANLSAEVVSLKRLIATQPISASDSG
B9: the “Z score of condensed fraction” value is given as -0.6996.

B10: NFKBIA (protein, UniProt P25963 1-317, looked up)
NF-kappa-B inhibitor alpha: MFQAAERPQEWAMEGPRDGLKKERLLDDRHDSGLDSMKDEEYEQMVKELQEIRLEPQEVPRGSEPWKQQLTEDGDSFLHLAIIHEEKALTMEVIRQVKGDLAFLNFQNNLQQTPLHLAVITNQPEIAEALLGAGCDPELRDFRGNTPLHLACEQGCLASVGVLTQSCTTPHLHSILKATNYNGHTCLHLASIHGYLGIVELLVSLGADVNAQEPCNGRTALHLAVDLQNPDLVSLLLKCGADVNRVTYQGYSPYQLTWGRPSTRIQQQLGQLTLENLQMLPESEDEESYDTESEFTEFTEDELPYDDCVFGGQRLTL
As to B10, the “Z score of condensed fraction” value is on record as 0.298.

B11: NFX1 (protein, UniProt Q12986 1-1120, looked up)
Transcriptional repressor …: MAEAPPVSGTFKFNTDAAEFIPQEKKNSGLNCGTQRRLDSNRIGRRNYSSPPPCHLSRQVPYDEISAVHQHSYHPSGSKPKSQQTSFQSSPCNKSPKSHGLQNQPWQKLRNEKHHIRVKKAQSLAEQTSDTAGLESSTRSESGTDLREHSPSESEKEVVGADPRGAKPKKATQFVYSYGRGPKVKGKLKCEWSNRTTPKPEDAGPESTKPVGVFHPDSSEASSRKGVLDGYGARRNEQRRYPQKRPPWEVEGARPRPGRNPPKQEGHRHTNAGHRNNMGPIPKDDLNERPAKSTCDSENLAVINKSSRRVDQEKCTVRRQDPQVVSPFSRGKQNHVLKNVETHTGSLIEQLTTEKYECMVCCELVRVTAPVWSCQSCYHVFHLNCIKKWARSPASQADGQSGWRCPACQNVSAHVPNTYTCFCGKVKNPEWSRNEIPHSCGEVCRKKQPGQDCPHSCNLLCHPGPCPPCPAFMTKTCECGRTRHTVRCGQAVSVHCSNPCENILNCGQHQCAELCHGGQCQPCQIILNQVCYCGSTSRDVLCGTDVGKSDGFGDFSCLKICGKDLKCGNHTCSQVCHPQPCQQCPRLPQLVRCCPCGQTPLSQLLELGSSSRKTCMDPVPSCGKVCGKPLPCGSLDFIHTCEKLCHEGDCGPCSRTSVISCRCSFRTKELPCTSLKSEDATFMCDKRCNKKRLCGRHKCNEICCVDKEHKCPLICGRKLRCGLHRCEEPCHRGNCQTCWQASFDELTCHCGASVIYPPVPCGTRPPECTQTCARVHECDHPVYHSCHSEEKCPPCTFLTQKWCMGKHEFRSNIPCHLVDISCGLPCSATLPCGMHKCQRLCHKGECLVDEPCKQPCTTPRADCGHPCMAPCHTSSPCPVTACKAKVELQCECGRRKEMVICSEASSTYQRIAAISMASKITDMQLGGSVEISKLITKKEVHQARLECDEECSALERKKRLAEAFHISEDSDPFNIRSSGSKFSDSLKEDARKDLKFVSDVEKEMETLVEAVNKGKNSKKSHSFPPMNRDHRRIIHDLAQVYGLESVSYDSEPKRNVVVTAIRGKSVCPPTTLTGVLEREMQARPPPPIPHHRHQSDKNPGSSNLQKITKEPIIDYFDVQD
Regarding B11, the “Z score of condensed fraction” value is -0.8733.

The record behind these values is PMC11574045, “A cofactor-induced repressive type of transcription factor condensation can be induced by synthetic peptides to suppress tumorigenesis” (The EMBO Journal, 2024).
